Source: the DeepSol protein solubility set

experiment: soluble on expression in E. coli; label from the status in PepcDB or PDB records

Row | Sequence | soluble on expression in E. coli
1 | SKLNERSVAHYALSDSPADHMGFLRTWGGPGTPPTPSGTGRRCWFVLKGNLLFSFESREGRAPLSLVVLEGCTVELAEAPVPEEFAFAICFDAPGVRPHLLAAEGPAAQEAWVKVLSRASFGYMRLVVRELESQLQDARQSLALQRRSSWKSVASRCKPQAPNHRAAGLENGHCLSKDSSPVGLVEEAGSRSAGWGLAEWELQGPASLLLGKGQSPVSPETSCFSTLHDWYGQEIVELRQCWQKRAQGSHSKCEEQDRP | soluble
2 | SKLVYRNLARNGPGSVKLVPEEEDDLWHAYNLIVPGDTLQSVTVRKVLREMASGGRDAERVRLKLEIVVESVDYDKEGSVLRVRGKNITENDHVKIGQFHTVELELKRQFTLTKELWDWLALDTIQQACDPTASADLAVILMQEGLAHLFLIGRSITVTRARIETSIPRKHGPAIAGYESALKKFFEHVLQVNEKCFLKEMIILMKPIWTDALLNLPTGFPEAY | soluble
3 | SKNPHLPQPVRVTVGPNAPPVFGMFYPDRYMVGVDCILVDGMFVSRSRFEKLGGSLMAKWYRSIRVVDTAEPLGAWLERHNLPVFTGKARQRRQRGAPSTN | soluble
4 | SKYVDRVIAEVEKKYADEPEFVQTVEEVLSSLGPVVDAHPEYEEVALLERMVIPERVIEFRVPWEDDNGKVHVNTGYRVQFNGAIGPYLGGLRFAPSVNLSIMKFLGFEQAFKDSLTTLPMGGAKGGSDFDPNGKSDREVMRFCQAFMTELYRHIGPDIDVPAGDLGVGARELGYMYGQYRKIVGGFYNGVLTGKARSFGGSLVRPEATGYGSVYYVEAVMKHENDTLVGKTVALAGFGNVAWGAAKKLAELGAKAVTLSGPDGYIYDPEGITTEEKINYMLEMRASGRNKVQDYADKFGVQFFPGEKPWGQKVDIIMPCATQNDVDLEQAKKIVANNVKYYIEVANMPTTNEALRFLMQQPNMVVAPSKAVNAGGVLVSGFEMSQNSERLSWTAEEVDSKLHQVMTDIHDGSAAAAERYGLGYNLVAGANIVGFQKIADAMMAQGIAW | soluble
5 | SLCDKIFHNLSGKTLVATPYVITKGIYHKSLIYMLSHTEEGAIGLIFNRLVNHVDLKSFFKIKEDKITSQVIVPIYLGGPIEHEKGFFLHSRDYNKNLLLDFHNDLAVSSNLEISEDIAFGQGPKNSLFIVGYTAWKPGQLEEELEKNLWLVMDCNKEFIFADNPENKWHNALKHLGIDEMYFSSQIGNA | soluble
6 | SLEKRQGLEDIGRVRATIKNEFPSLTLLTQDWGDWDETYKFSQNHNQEYLEANVPSLTTLSKSTKIDFLALYDLNAIELFKGAYHPDMEREVNLHSTPSIRSLVASVLKTNREKKGLFKTDEGLLALVARPILTSEGRGPSHGVIIMGRFLSQLLLSSVGKKCPIPFELFIQDDKRLSAPEKALFAKLSATAPRFTPVFHQGFVYQTYPDIE | not soluble
7 | SLENYWVDERTLVVSGDFFGVSTGLLGGWKRVRHAFNHTVSEEFHSMEPAEYLRKVARGYGLKSYFGLLTSVPIEKLSVKGCGEVTVFATAGVMNPNERVGTINIIAVFECRMSRAAMLNAIITATEAKTKALLEEGHNFTGTNTDAVVVLCTQKGGYHRYCGPASEVGQKLWRCAGEAVKDSLARW | soluble
8 | SLERLIRGMQYHYQWLTPFDAKRTTVVCLHGFTGTLATFAAVFPSQTPYNVLGIDLPGHGATASLVAPERYTMKQVCHDIAELTESLNLPCFCLLGYSMGARTALGFALHYPQKVQHLLLESGSPGLATAAERQARICQDHRLAERLLEEPLVDFIDFWQELPLFQTQKALSVAQQMAIRQERLSQSAFGLVSSLWYMGTGAQESYWERLAELQPIPTDLLVGGEDQKFIGIAKKMQARQPLLRLTIFPEAGHCIHLEQPTIFYEKVTALLEGAI | soluble
9 | SLGWQISRFNRAFDTLCQQGRVGVGRSSGRFKPRVVVAIALDDQQRIVDTLFMKGLTVFARPQKIPAITGMHAGDLQPDVIFPHDPLSQNALSLALKLKRG | soluble
10 | SLHRILLVDDEKDVGKIVSRLLAGDNYEIEQVTTGKEAMKRVLEESLPDIILLDINLPDIDGMDMLRDMKDAVRGTPIVMMTAYGSIETAVRSIKMGAMDFVQKPFNHYDFKRFINGVISARNIAGNDHCGIVGSSPQMKKVFRLVDKFALSDITILLQGESGTGKELFARAIHQKSKRRSGPFVPLDCAALSETLIESELFGHEKGAFTGATERKIGKFERAHGGTLFIDEVENLSSSNQAKLLRAVEEKQIERVGGTKAIKVDVRIVAASNIPLTEIINNGVFRKDLFYRFSQMTIAIPSLRDRVKDVDVLIRHFLAAYSEEFGNAANISEEALLLLNAYPWPGNVRELENVVKSAVILADGDILAKHLPEYIRKGSEG | soluble
11 | SLKALWIYVGPVEDYGWTRAHHDGHMKARSKLGWLESSYIETVSEDKAYDVIKAQLDAEGYDAVFATSYGYMDALKRLATEYPDVKFYHCSGPWEEFRDLPNVSTYFAEFYQLYYLNGLAAAGATETCNLGYIPAFLIPEVVRHINAYVIGAVEGAKVLGKCGDGRNIRVLVTPPLNSWFAPDKARDAARLLVETYDVDVIAYTEDTTAVLETAESYWDQGVKVYSFSHYTDMYAYFKSQGKTLRSHLTGQIS | soluble
12 | SLKIKQIVKPGLAVLAAGVLSACATKSNVKADGTTDNPVFPKPYSVTLDNNRGTFPTYDELDLMRPGLTKDDIYKILGRPHYDEGMYGVREWDYLFHFHTPGVGIDPENTSGVEGITTCQYKIIFDKDKFARSFYWNPVFPKDAACPPPAPKAEPQVIIREIVPAKPKRIRQ | soluble
13 | SLKITDDCINCDVCEPECPNGAISQGEEIYVIDPNLCTECVGHYDEPQCQQVCPVDCIPLDDANVESKDQLMEKYRKITGKA | soluble
14 | SLKRIDWNIQYLSLPPVIKHCKKCGKKTEFICSGMFRINAQRKYLDVWLIYKCSNCNSTWNMTIYTRVKPKSIEPKLLEAFHNNDKELAERYAVNLELIRKNGVELGYTKYKIIGEDINFRIPVELHIKSTYPSQLKVAALIREKLNLSQSSFESLITKGLIRGDTEINLKKCRLRTEVIVIIDSLDWSEVAFALAL | soluble
15 | SLLASTRHIARGDTGNVSVRIRRVTTTRAGGVSAPPFDTFNLGDHVGDDPAAVAANRARLAAAIGLPGNRVVWMNQVHGDRVELVDQPRNTALDDTDGLVTATPRLALAVVTADCVPVLMADARAGIAAAVHAGRAGAQRGVVVRALEVMLSLGAQVRDISALLGPAVSGRNYEVPAAMADEVEAALPGSRTTTAAGTPGVDLRAGIACQLRDLGVESIDVDPRCTVADPTLFSHRRDAPTGRFASLVWME | not soluble
16 | SLLDTLLINIGQLLTMDQEDGLLRREAMNTLPVIENGAVGIENGVITFVGTAEEAKGLQAKEVIDCGGKMVSPGLVDPHTHLVFGGSRENEIALKLQGVPYLEILEQGGGILSTVNATKQSSKEELVQKAKFHLDRMLSFGVTTVEAKSGYGLDDETEWKQLEATAQLQKEHPIDLVSTFLGAHAVPKEYKGRSKEFLQWMLDLLPEMKEKQLAEFVDIFCETGVFSVEESKEFLLKAKELGFDVKIHADEIDPLGGAEAAAEIGAASADHLVGASDKGIEMLANSNTVATLLPGTTFYLNKESFARGRKMIDEGVAVALATDFNPGSCPTENIQLIMSIAMLKLKMTPEEVWNAVTVNSSYAINRGDVAGKIRVGRKADLVLWDAYNYAYVPYHYGVSHVNTVWKNGNIAYTRGEQSWSTATI | soluble
17 | SLLDVAVSPDDRFILTADRDEKIRVSWAAAPHSIESFCLGHTEFVSRISVVPTQPGLLLSSSGDGTLRLWEYRSGRQLHCCHLASLQELVDPQAPQKFAASRIAFWCQENCVALLCDGTSVVYIFQLDARRQQLVYRQQLAFQHQVWDVAFEETQGLWVLQDCQEAPLVLYRPVGDQWQSVPESTVLKKVSGVLRGNWAMLEGSAGADASFSSLYKATFDNVTSYLKKKEERLQQQLEKKQRRRSPPPGPDGHAKKMRPGEATLSC | soluble
18 | SLMVLAMESRVAPEIPGLIQPGNVTQDLKMMVCKLLNSPKPTKTFPGSQPVSFQHSDVEEKLLAHDYYVCEKTDGLRVLMFIVINPVTGEQGCFMIDRENNYYLVNGFRFPRLPQKKKEELLETLQDGTLLDGELVIQTNPMTKLQELRYLMFDCLAINGRCLTQSPTSSRLAHLGKEFFKPYFDLRAAYPNRCTTFPFKISMKHMDFSYQLVKVAKSLDKLPHLSDGLIFTPVKAPYTAGGKDSLLLKWKPEQENTVDFKLILDIPMVEDPSLPKDDRNRWYYNYDVKPVFSLYVWQGGADVNSRLKHFDQPFDRKEFEILERTYRKFAELSVSDEEWQNLKNLEQPLNGRIVECAKNQETGAWEMLRFRDDKLNGNHTSVVQKVLESINDSVSLEDLEEIVGDIKRCWDERRANMAGGSGRPLPSQSQNATLSTSKPVHSQPPSNDKEPKYVDEDDWSD | soluble
19 | SLNTPFSIDEVSFRDLPGWGQDDPRKLFPAMATILSHLRNAKPYRTGALGITAAELVSLLELAERGQVNSPEQARQFFETNSVPFRISPAQGKSGFVTAFYEPELEVSATPDDVWRYPIYRRPPELVDIDNDNRPDGFDPSYAFGKADEEGISYFPDRRAIDEGCLRGRGLEIAWARSKVDLFFVHVQGAARLVFPDGAIKRITYAAKAGHVFSPIGRLLLDRGELDPKTISMQTIRQWLADHPDEVDGVLWHNRSYIFFREADVAGLDMGPIAAAKVPLVAGRALAVDRLIHTFGLPFFIHAPTLTHLDDGKPFARLMLALDTGSAIVGPARGDIFTGSGFEAGELAGTVRNEADFYILLPRIAAERYRR | not soluble
20 | SLQETTAQEQKVGNYALGPEGLKKALAETGSHILVMDLYAKTMIKQPNVNLSNINLGSEGGELLKNIHLNQELSRINANYWLDTAKPQIQKTARNIVNYDEQFQNYYDTLVETVQKKDKAGLKEGINDLITTINTNSKEVTDVIKMLQDFKGKLYQNSTDFKNNVGGPDGKGGLTAILAGQQATIPQLQAEIEQLRATQKKHFDDVLAWSIG | soluble
21 | SLRIEHFETISCDAGWRNYYFLKVVTSDGIVGWSEYDESFGPPGLTAVIEQLGARLVGKSVYDHEEAYGRLAASLRPAPYGLSAEAIGAIENALLDAKAKSLGLPVYQLLGGKHRGSIPIYWSHCATWRISHPNLYPPAIVDLDGVKKAGEDARKSGISALKTNLFINENGKPRQWMAGFGSPYAPSLNVDKALLRNLRAHLEALRDGAGPDVDILVDLNFNARTEGYLSLINAIKDFDLFWVELDIYNPDAMAYIRQRSHAPIAACETLFGIRQFLPYFQAQSMDVAIVDAVWNGVWQAMKIASVADAFDVNIAPHNFYSHLSTMMNVHFAAAVPNLRVMEVDVDRLAWDDQLFTRTPEIVNGAIQVPDAPGWGCDPIEEALRAHPPQVRRSHLGL | soluble
22 | SLRVMLPNKKALEIIRKYMKIYNGKNEKDIKERLIKELKEEHVLVETEDGTYTLKAEDEEEMMHSKVGALKEAIYKFAKPSKITDLSNPRVLDLCSGMGYNAIAALHYNKNAEIDMVEICEEVLFLTLFLDIPYKEHEIIKDKVREYFLNKIGIEYKSDYDNINLYVGDARKFIIKSDKKYNVVFHDAFSPKRDPTLYTYDFLKEIYKRMEDNGVLISYSSAIPFRSALVDCGFVISEKESVGRKRGITLAYKNPNFKPNRINEVDERVIALSVIALPYRDETLSLTKDKIIEDREERREKLKEKLIKIGKYLSTKQIKKGNIPEEILKIQKEDLNSSEIIKKMRLKFFKDANIFIL | soluble
23 | SLRVSASMSLVVLTFLLTCFMVRPMTAVTSDPLDFHWPGSRILAVGDLHGDIGNTMLLLYGAGVVDEDGNWIAGDTLLIQTGDVVDRGPDGKRIYDYFASLSAQATEQGGKIIQLLGNHDVMNICGDFRYAHPSETIEFGGALERRRQFMDGGHYGNMLRSFPLSIKANGVIFSHAGIPSDFAVLGLSKLTQQLREELANDCKLHNSRFYNEAMGSSTGDLFVAGSQGPLWTRVYSMGQMTKICEELDKTLGILDSEKMVIGHTVQESGNIEVYCGGRLLLIDTGVSRYVADSPRMLEIRDGTFFEWRLDISKQGTDSEPNVRGSKRQLNIPPLKN | not soluble
